Test results published in publication PMC12399645 (Frontiers in Immunology, 2025).

Target: SARS-CoV-2 spike trimer protein, Wild-type (SARS-CoV-2, original Wild-type …, UniProt P0DTC2, biotin on the Avi-tag (BirA ligase))
Test: ELISA
Conditions: both partners purified

Row | Binder | binding result
1 | KBA2404 (antibody, V domains shown, IgG1 format; copies: 2 + 2) VH: EVQLVESGGGLVQPGGSLRLSCAASGFTVSSNYMSWVRQAPGKGLECVSVIYSGGSTYYGDSVKGRFTISRDNSKNRLYLQMHSLRAEDTAVYFCARIVSDAFDIWGQGTMVTVSS VL: DIQMTSLLSPLSASVGDRVTITCRASQNINRWLAWYQQKPGKAPKLLIYMASNLESGVPSRFSGSGSGTEFSLTISSLQPDDLATYYCQQYNSYWTSYTFGQGTKLEIK | binds
2 | KBA2403 (antibody, V domains shown, IgG1 format; copies: 2 + 2) VH: EVQLVESGGGLVQPGGSLRLSCVASGIIVSRNYMNWVRQAPGKGLEWVSVLYSGGTTEYADSVKGRFTISRDNSKNTLFLQMSSLRVEDTAVYFCAREGYGMDVWGQGATVTVSS VL: DIQLTQSPSFLSASVGDRVTITCRAGQGISTYLAWYQQKPGKAPKLLIYSASTLQSGVPSRFSGSGSGTEFTLTISSLQPEDFATYYCQQLNNYPPAFGGGTKVEIK | binds
3 | KBA2402 (antibody, V domains shown, copies: 2 + 2) VH: EVQLVESGGGLVQPGRSLGLSCTTSGFTFGDFAMSWFRQAPGKGLEWVGFIRSKAYGGATQYAASVKGRFTISRDDSKSIAYLQMNSLKTEDTAVYYCTRAGEMATTVNRQFDYWGQGTLVTVSS VL: not shown | binds
4 | KBA2401 (antibody, V domains shown, copies: 2 + 2) VH: EVQLVQSGAEVKKPGESLKISCKGSGYTFSYFWIGWVRQMPGKGLEWMGIIYPGDSDTRYSPSFQGQVTISADKSISTAYLQWSSLKASDTAMYYCARVGIEMATTYFGFWGQGTMVTVSS VL: SYVLTQPPSVSVAPGQTARITCGGNNIGSKSVHWYQQRPGQAPVLVVYDDSDRPSEIPERFSGSSSGNTATLTISTVEAGDEADYYCQVWDSSTDHPGVFGGGTKLTVL | binds

Same assay, conditions: one partner purified

Row | Binder | binding result
5 | KBA2402_EVO17 (antibody, V domains shown, copies: 2 + 2) VH: EVQLVESGGGLVQPGRSLGLSCTTSGFTFGDFAMSWFRQAPGKGLEWVGFIRSKAYGGATQYAASVKGRFTISRDDSKSIAYLQMNSLKTEDTAVYYCTRAGEMATTVNRQFDYWGQGTLVTVSS VL: not shown | binds
6 | KBA2402_EVO14 (antibody, V domains shown, copies: 2 + 2) VH: EVQLVESGGGLVQPGRSLGLSCTTSGFTFGDFAMSWFRQAPGKGLEWVGFIRSKAYGGATQYAASVKGRFTISRDDSKSIAYLQMNSLKTEDTAVYYCTRAGEMATTVNRQFDYWGQGTLVTVSS VL: not shown | binds
